This is an account of results in patent publication US11702469B2, “Recombinant EGFL7, EGFL7 antibodies, and uses thereof” (Ohio State Innovation Foundation, priority 2017, dated 2023).

One data set concerns HES1. In words: DLL4-Fc coated plate NOTCH activation (HES1 qRT-PCR), THP-1. The format is cell-based, human. Particulars: pre-treated 30 min: 10 μM AVA, 100 μg/ml anti-EGFL7 or 0.25 μM rEGFL7; then 4 h; vs DLL4-FC. How it is done: FIG. 24A-24G. EGFL7 prevents activation of NOTCH signaling in AML cells. (FIG. 24A) Overview of experiments using DLL4-FC and IgG-FC control coated plates to induce NOTCH activation. (FIG. 24B) THP-1 cells were pre-treated with 10 μM γ-secretase inhibitor (AVA), 100 μg/ml anti-EGFL7 antibody or 0.25 μM rEGFL7 for 30 min, then transferred to IgG-Fc or DLL4-Fc coated plates. After 4 h of incubation total RNA from THP-1 cells was extracted for qRT-PCR analysis of HES1 with β-ACTIN as internal control. ^###P<0.001 DLL4-FC vs IgG-FC; ***P<0.001 DLL4+AVA, DLL4+rEGFL7, and DLL4+anti-EGFL7 vs DLL4-FC. (FIG. 24C) Primary AML blasts were pretreated with 10 μM γ-secretase inhibitor (AVA), 100 μg/ml anti-EGFL7 antibody or 0.25 μM rEGFL7 for 30 min, then transferred to IgG-Fc or DLL4-Fc coated plates. After 4 h of incubation, total RNA was extracted for RT-PCR analysis of HES1 mRNA with β-ACTIN as internal control. ^###P<0.001 DLL4-Fc vs IgG-Fc; *P<0.05, ***P<0.001 vs DLL4 Fc. THP-1 cells were treated with the indicated concentration of anti-EGFL7 (@E7) then assessed for apoptosis using (FIG. 24D) AnnexinV+ staining and FACS; *P<0.05 (FIG. 24E) Immuno-blotting for PARP1 and Casp3 cleavage. (FIG. 24F) Cell differentiation was assessed by CD11B and CD14 staining 96-hours post anti-EGFL7 treatments; *P<0.05. (FIG. 24G) To determine whether activation of NOTCH by DLL4-Fc could be accentuated by anti-EGFL7 treatment, THP-1 cells were first treated with anti-EGFL7 (100 μg/ml) and then cultured on DLL4-FC or IgG-Fc coated plates and then assessed for apoptosis using AnnexinV+ staining and FACS. *P<0.05 DLL4-Fc and anti-EGFL7; vs DLL4-FC+anti-EGFL7.
Total RNA was extracted using Trizol reagent (Invitrogen, Carlsbad, Calif., USA). cDNA was synthesized using SuperScript III reagents (Invitrogen) according to the manufacturer's instruction. Quantitative Real-Time RT-PCR was performed using commercially available TaqMan Gene Expression Assay primers and the 7900HT Fast Real-Time PCR System (Applied Biosystems, Foster City, Calif., USA). […]

Another data set has as its system EOL-1 cells. In words: EOL-1 AML xenograft in NSG mice. The settings on record: for overall survival: 50 mg/kg intraperitoneal, three times per week, 4 mice per group, vs IgG1 control.
A further data set concerns CD34+CB cells. Nature of the data set: CFU assay, CD34+ cord blood cells. The format is cell-based. The settings on record: treated in vitro, vs IgG1 control. How it is done:
FIG. 12. Recombinant EGFL7 stimulation leads to expansion of primary CFUs and secondary CFUs in human hematopoietic stem and progenitor cells (HSPCs). […] The number of colonies with more than 50 cells was counted under a light microscope. Right: Cells from the first round of CFU assays were harvested, rinsed with SFEM, and pooled. 5000 cells were then mixed with methylcellulose medium in the absence or presence of 0.25 μM recombinant human EGFL7 and plated onto 2 cm dishes for 10 days. The number of colonies with more than 50 cells was counted under a light microscope. […]
[…] After 10 days of culture, colonies were scored.
To assess the toxicity of Parsatuzumab on normal hematopoiesis, wild type (C57Bl/6J) mice were treated with Parsatuzumab (n=4) and IgG1 control (n=4) with the highest dose previously tested at 50 mpk twice a week for two weeks. Parsatuzumab targets both human and mouse EGFL7 protein. After two weeks of treatment, blood, spleen and BM were harvested and full phenotypic characterization was performed to assess toxicity. […] Full immunophenotypic examination of BM populations was also performed (data not shown due to space constraints). […] To functionally test the effect of Parsatuzumab on normal HSPCs, competitive repopulation BM transplantation (BMT) assays and CFU assays were performed. […]

Method for EOL-1 cells: (FIG. 25A) Overall survival of transplanted NSG mice which were treated with Parsatuzumab or IgG1 control (4 mice per group; dosage 50 mg/kg intraperitoneal injected). […] (FIG. 25B) HES-1 levels were measured after in vivo treatment with Parsatuzumab and IgG1 control, GAPDH was used as loading control.
All studies using animals were carried out in accordance with the OSU institutional guidelines for animal care and under protocols approved by the OSU Institutional Animal Care and Use Committee. All mice used in the experiments were between 8 and 10 weeks of age. Female NOD-scid IL2Rg^null (NSG) mice were transplanted with 10×10^6 EOL-1 cells. Two weeks post-transplant mice were treated with Parsatuzumab or IgG1 control (4 mice per group; dosage 50 mg/kg intraperitoneal), three times per week. Mice were monitored closely for clinical signs of leukemia such as weight loss and hind limb paralysis.
Two-tailed student's t tests were performed using GraphPad Prism version 7 (Graphpad Software, San Diego, Calif.) to analyze in vitro and in vivo experiments unless otherwise noted. P values <0.05 were considered significant. Overall survival for the mouse AML xeonograft model was calculated using the Kaplan-Meier method, and survival curves were compared by the log-rank test.
Briefly, 10×10^6 EOL-1 cells were transplanted into non-conditioned NSG recipient mice. Two weeks post-transplantation, mice were treated with 50 mpk of anti-EGFL7 or IgG1 control antibody three times per week (FIG. 25A).

B1: Parsatuzumab: Anti-human EGFL7 therapeutic antibody (Parsatuzumab) obtained from Creative Biolabs; blocking monoclonal antibody (antibody, chains of the INN, looked up, V domains shown)
VH: EVQLVESGGGLVQPGGSLRLSCAASGYTFIDYYMNWVRQAPGKGLEWVGDINLDNSGTHYNQKFKGRFTISRDKSKNTAYLQMNSLRAEDTAVYYCAREGVYHDYDDYAMDYWGQGTLVTVSS
VL: DIQMTQSPSSLSASVGDRVTITCRTSQSLVHINAITYLHWYQQKPGKAPKLLIYRVSNRFSGVPSRFSGSGSGTDFTLTISSLQPEDFATYYCGQSTHVPLTFGQGTKVEIK
Consider B1, for which the “DLL4-Fc-mediated NOTCH activation (HES1)” value with HES1 is recorded as “enhanced”. For the same molecule, the results for the overall survival entry with EOL-1 cells and in the data set on EOL-1 cells (listed as anti-EGFL7) were “significant longer overall survival” and “prolonged survival”, respectively. For the same molecule, the “HES1 protein (western blots) after in vivo treatment” value in the data set with EOL-1 cells (50 mpk three times per week, vs IgG1 controls) is “increased levels of HES1 protein”. Moreover, the “numbers and types of colonies, CB CD34+ cells” value in the data set with CD34+CB cells is on record as “no significant changes in the numbers or types of colonies”.
